Reference: PMC2965686

Tests used:
Experiment in all cases: FRET or BRET
[1] = target: YFP-Spo21 (S. cerevisiae) (UniProt Q12411)
[2] = target: YFP-Cnm67 (S. cerevisiae) (UniProt P53865)
[3] = target: Mpc54-YFP (S. cerevisiae) (UniProt Q08550)
[4] = target: Spo21-YFP (S. cerevisiae) (UniProt Q12411)

Chain of UniProt Q08550 (Q08550 whole entry): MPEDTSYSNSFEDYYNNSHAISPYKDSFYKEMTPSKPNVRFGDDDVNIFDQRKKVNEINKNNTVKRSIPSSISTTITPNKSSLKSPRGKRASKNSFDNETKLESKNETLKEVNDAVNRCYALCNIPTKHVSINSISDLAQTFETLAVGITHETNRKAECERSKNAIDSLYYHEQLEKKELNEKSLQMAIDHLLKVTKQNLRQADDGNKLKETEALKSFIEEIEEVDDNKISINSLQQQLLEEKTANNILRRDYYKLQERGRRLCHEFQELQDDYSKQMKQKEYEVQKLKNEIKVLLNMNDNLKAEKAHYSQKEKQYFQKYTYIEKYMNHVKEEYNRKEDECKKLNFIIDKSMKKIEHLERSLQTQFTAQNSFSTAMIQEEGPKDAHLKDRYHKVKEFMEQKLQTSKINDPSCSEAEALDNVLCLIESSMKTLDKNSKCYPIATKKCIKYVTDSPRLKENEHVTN
Chain of UniProt P53865 (P53865 whole entry): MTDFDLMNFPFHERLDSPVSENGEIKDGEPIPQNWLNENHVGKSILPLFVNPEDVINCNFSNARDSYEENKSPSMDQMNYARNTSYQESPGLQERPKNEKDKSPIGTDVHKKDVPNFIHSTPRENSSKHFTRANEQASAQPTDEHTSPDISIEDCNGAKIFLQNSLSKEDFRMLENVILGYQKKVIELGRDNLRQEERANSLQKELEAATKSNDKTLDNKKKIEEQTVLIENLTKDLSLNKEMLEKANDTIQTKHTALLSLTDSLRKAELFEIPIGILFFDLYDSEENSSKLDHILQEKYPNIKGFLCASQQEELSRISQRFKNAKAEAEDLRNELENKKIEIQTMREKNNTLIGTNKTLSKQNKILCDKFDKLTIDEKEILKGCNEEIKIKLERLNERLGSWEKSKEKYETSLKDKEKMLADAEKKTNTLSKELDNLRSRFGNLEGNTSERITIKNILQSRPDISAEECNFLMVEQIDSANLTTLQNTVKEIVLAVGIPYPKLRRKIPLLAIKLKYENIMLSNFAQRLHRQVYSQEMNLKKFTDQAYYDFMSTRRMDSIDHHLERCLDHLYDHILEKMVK

FretR [1]	FretR [2]	FretR [3]	FretR [4]	Substance
1.23				CFP-Mpc54 (from UniProt Q08550 1-464) (natural protein)
	1.35	1.26		Mpc54-CFP (from UniProt Q08550 1-464) (natural protein)
	1.47	1.24	1.34	Spo21-CFP (from UniProt Q12411 1-609) (natural protein)
